# Data as given in PMC12022308 (Nature Communications, 2025).
# Target: the molecule itself
# Assay: cryo-EM structure
protein,measurement,value
"L-protein (homodimeric BchL protein, electron donor component of DPOR) (natural protein, Rhodobacter sphaeroides, UniProt Q9RFD6 1-297, looked up) MSPKDLTIPTGADGEGSVQVHLDEADKITGAKVFAVYGKGGIGKSTTSSNLSAAFSILGKRVLQIGCDPKHDSTFTLTGSLVPTVIDVLKDVDFHPEELRPEDFVFEGFNGVMCVEAGGPPAGTGCGGYVVGQTVKLLKQHHLLDDTDVVIFDVLGDVVCGGFAAPLQHADQAVVVTANDFDSIYAMNRIIAAVQAKSKNYKVRLAGCVANRSRATDEVDRFCKETNFRRLAHMPDLDAIRRSRLKKKTLFEMDEDQDVLAARAEYIRLAESLWRGLDPIDPHSLPDRDIFELLGFD",stoichiometry N,2
